# Laboratory results: article PMC8342802, “A Novel Bacteriocin From Lactobacillus Pentosus ZFM94 and Its Antibacterial Mode of Action” (Frontiers in Nutrition, 2021)
# Where no end group is shown, it is not given here. [ ]: non-standard residue; d: D form. Abu = CC[C@H](N)C(=O)O; Dhb = C/C=C(\N)C(=O)O; Dha = C=C(N)C(=O)O
# Tests used:
# [1] = cited from earlier work
# Procedure: It retained 80.37% of its original antibacterial activity after heating at 80°C for 30 min. The antibacterial activity of pentocin ZFM94 was stable at pH 2–7. […] Pentocin ZFM94 was sensitive to trypsin and pepsin, but not to amylase, lysozyme, lipase, and ribonuclease A. Studies have reported that leuconocin S and carnocin 5 ...
# [2] = binding to lipid II, agar well-diffusion after mixing with lipid II; format: cell-based, Micrococcus luteus; settings: 10 μm peptide with 20 μm lipid II, 4°C for 1 h, indicator M. luteus 10209
# Procedure: Studies have shown that lipid II was the target of nisin ([25]), and the combination of lipid II and nisin can mediate the formation of pores. Nisin and pentocin ZFM94 were mixed with lipid II, respectively. The final concentration of nisin or pentocin ZFM94 was 10 μm, while the concentration of lipid II was 20 μm. The mixture was maintained at 4°C for 1 h. The changes in the antibacterial activity were detected by the agar well-diffusion method. Micrococcus luteus 10209 was used as the indicator. Then, the size of the inhibition zone was observed.
substance,measurement,setting,value
"nisin (I[Dhb]AI[Dha]LC[Abu]PGCK[Abu]GALMGCNMK[Abu]A[Abu]CHCSIHV[Dha]K; thioether (positions not given here); not fully specified (residues 7, 11, 19, 26, 28, bridges); also: lantibiotic: thioether bridges and dehydrated residues, places not given here; UniProt P13068 24-57, looked up)",activity at pH close to 7,[1],inactivated
same,antibacterial effect after mixing with lipid II,[2],disappeared
